Laboratory results as given in patent US20220409742A1, “NUCLEIC ACID NANOPARTICLES, PHARMACEUTICAL COMPOSITION COMPRISING SAME, DRUG COMPRISING DOXORUBICIN AND PREPARATION METHOD THEREFOR” (BAI YAO ZHI DA (BEIJING) NANOBIO TECHNOLOGY CO., LTD., priority 2018, published 2022).
Several values for one entry are separate records, joined by “and”; a condition that tells them apart may be missing. Identical values can stand only once. {Biotin} = biotin attached at the strand end

Key:
[1] = Doxorubicin loading rate, chemical loading (paraformaldehyde covalent linkage); assay type: physicochemical; details: doxorubicin molecules per nucleic acid nanoparticle carrier
Method: (1) Accurately weighing the doxorubicin (5.0 mg, 8.6 μmol, 40 eq.) and dissolving in the DEPC treated water (1.8 mL) and the PBS buffer solution (2.1 mL), adding 4% paraformaldehyde aqueous solution (0.4 mL) under cooling of an ice-water bath and uniformly mixing, enabling the mixed solution to be totally uniformly mixed with the RNA nanoparticles (215 nmol), and reacting for 72 hours at 4 DEG C. under a dark condition.
(2) Taking 10 μL of reaction solution and diluting for 10 times, using 50 μM of the doxorubicin aqueous solution and 310 ng/μL of the RNA nanoparticles as controls, and performing HPLC analysis according to equal volume injection. According to a peak area ratio of each component, it may be adjusted that reaction conversion is basically completed.
(3) Extracting the reaction solution by the chloroform (10 mL×3), and then adding 10 times of the anhydrous ethanol in volume, after uniformly mixing, keeping at 4 DEG C. in the dark and enabling a product to be adequately precipitated (4 hours). Centrifuging, transferring supernatant, and washing the solid product again by the ethanol, evaporating a solvent under reduced pressure and lower temperature, to obtain a loading product which is a dark red solid.
(5) Loading rate calculation:
1. preparing a known concentration of doxorubicin-PBS standard solution: 2 μM, 4 μM, 6 μM, 8 μM, and 10 μM, 100 μL each;
2. enabling the doxorubicin-loaded product to be dissolved in 100 μL of the PBS;
3. putting the standard solution and the doxorubicin-loaded product into a PCR plate, heating at 85 DEG C. for 5 min, and then cooling to the room temperature;
4. measuring an absorbance of the doxorubicin at 492 nm by using a microplate reader, drawing a standard curve (as shown in FIG. 11), and calculating the molar concentration of the doxorubicin in the loaded product;
5. measuring an absorbance of RNA at 260 nm by using a spectrophotometer, to obtain the mass concentration of the doxorubicin-loaded product contained in each sample; and
6. according to the doxorubicin molar concentration and the mass concentration of the doxorubicin-loaded product obtained by measuring, calculating a loading rate.
According to the chemical loading method (unless otherwise specified, the method is the same as that of Embodiment 5) of Embodiment 5, the above DNA nanoparticles in Embodiment 1, the RNA nanoparticles formed by the self-assembly of the R-1, R-2, R-3, R-4, R-5, R-6 and R-7 in Embodiment 2, and the DNA nanoparticles formed by the self-assembly of the D-2, D-6 and D-7 in Embodiment 4 are respectively used as doxorubicin loading carriers, doxorubicin loading rates measured are respectively as follows:
According to the chemical loading method (unless otherwise specified, the method is the same as that of Embodiment 5) of Embodiment 5, the RNA nanoparticles formed by the self-assembly of the previous R-15, R-16, R-17, R-18, R-19, R-20 and R-21 in Embodiment 11, and the DNA nanoparticles formed by the self-assembly of the D-8, D-9, D-10, D-11, D-12, D-13 and D-14 in Embodiment 12 are respectively used as doxorubicin loading carriers, doxorubicin loading rates measured are respectively as follows: […]

[2] = Particle size measurement (DLS hydrodynamic size); assay type: physicochemical
Description: 1. Preparing a potential sample (conventional-sequence DNA self-assembly product D-7) and putting into a sample pool, opening a sample pool cover of an instrument, and placing the instrument;
2. opening software, and clicking a menu, so a manual measurement parameter setting dialog box appears;
3. setting a software detection parameter; and then
4. clicking Ok to complete the settings, while a measurement dialog box appears, clicking Start to start, a DLS measurement value result of a hydrodynamic size of the self-assembly product D-7 is as follows:
1. Preparing a potential sample (7 groups of extension fragment deformation+core short-sequence RNA) and putting into a sample pool, opening a sample pool cover of an instrument, and placing the instrument;
4. clicking Ok to complete the settings, while a measurement dialog box appears, clicking Start to start, a DLS measurement value result of a hydrodynamic size of the 7 groups of extension fragment deformation+core short-sequence RNA is as follows:
(1) Preparing a potential sample (7 groups of extension fragment deformation+core short-sequence DNA) and putting into a sample pool, opening a sample pool cover of an instrument, and placing the instrument;
(2) opening software, and clicking a menu, so a manual measurement parameter setting dialog box appears;
(3) setting a software detection parameter; and then
(4) clicking Ok to complete the settings, while a measurement dialog box appears, clicking Start to start, a DLS measurement value result of a hydrodynamic size of the 7 groups of extension fragment deformation+core short-sequence DNA is as follows: […]

| Molecule | doxorubicin loading rate [1] | Mean particle size [2] [nm] | also measured |
| --- | --- | --- | --- |
| R-1: short-sequence RNA nanoparticle, strands SEQ ID NO:55-57, c/u 2′F modification (chain 1 GGAGCGUUGG; chain 2 CCUUCGCCGY; chain 3 CGGCCAUAGCCC; 2'-F C/U, chemistry not fully specified) | 3.5 | – | – |
| R-2: short-sequence RNA nanoparticle, strands SEQ ID NO:58-60, c/u 2′F modification (chain 1 GCAGCGUUCG; chain 2 CGUUCGCCGY; chain 3 CGGCCAUAGCGC; 2'-F C/U, chemistry not fully specified) | 2.4 | – | – |
| R-3: short-sequence RNA nanoparticle, strands SEQ ID NO:61-63, c/u 2′F modification (chain 1 CGAGCGUUGC; chain 2 GCUUCGCCGY; chain 3 CGGCCAUAGCCG; 2'-F C/U, chemistry not fully specified) | 4.8 | – | – |
| R-4: short-sequence RNA nanoparticle, strands SEQ ID NO:64-66, c/u 2′F modification (chain 1 GGAGCGUUGG; chain 2 CCUUCGGGGY; chain 3 CCCCCAUAGCCC; 2'-F C/U, chemistry not fully specified) | 3.5 | – | – |
| R-5: short-sequence RNA nanoparticle, strands SEQ ID NO:67-69, c/u 2′F modification (chain 1 GCAGCGUUCG; chain 2 CGUUCGGCGY; chain 3 CGCCCAUAGCGC; 2'-F C/U, chemistry not fully specified) | 12.5 | – | – |
| R-6: short-sequence RNA nanoparticle, strands SEQ ID NO:70-72, c/u 2′F modification (chain 1 GCAGCGUUCG; chain 2 CGUUCGGCCY; chain 3 GGCCCAUAGCGC; 2'-F C/U, chemistry not fully specified) | 2.8 | – | – |
| D-7: conventional-sequence DNA nanoparticle, SEQ ID NO:117-119, without target head, thio modification (nucleic acid, DNA, backbone and methylation of C not given here; three-strand DNA nanoparticle, phosphorothioate modification) chain 1: CGCGCGCCCACGAGCGTTGCGGGCGCCGC chain 2: GCGGCGCCCGCTTCGGCGGCAGGCGGC chain 3: GCCGCCAGCCGCCCATAGCCGTGGGCGCGCG | 10 | – | Particle size Z-Ave, single detection ([2]; detection times 1-3, listed as 1): 10.76 nm·days and 13.9 nm·days and 10.36 nm·days; Particle size Z-Ave, Experiment result ([2]; summary of 3 detections): 12.33 d.nm(±1.57 d.nm) |
| D-6: conventional-sequence DNA nanoparticle, SEQ ID NO:114-116, without target head, thio modification (nucleic acid, DNA, backbone and methylation of C not given here; three-strand DNA nanoparticle, phosphorothioate modification) chain 1: CGCGCGCCCAGCAGCGTTCGGGGCGCCGC chain 2: GCGGCGCCCCGTTCGGCCGGCAGGCGGC chain 3: GCCGCCAGCCGGCCCATAGCGCTGGGCGCGCG | 11 | – | – |
| D-2: conventional-sequence DNA nanoparticle, SEQ ID NO:102-104, EGFRapt target head, thio modification (nucleic acid, DNA, backbone and methylation of C not given here; DNA nanoparticle with EGFR aptamer head, phosphorothioate modification) chain 1: CGCGCGCCCAGCAGCGTTCGCGGGCGGCGGCCTTAGTAACGTGCTTTGATGTCGATTCGACAGGAGGC chain 2: CGCCGCCCGCGTTCGCCGCCAGCCGCC chain 3: GGCGGCAGGCGGCCATAGCGCTGGGCGCGCG | 14 | – | – |
| R-15: extension fragment deformation+core short-sequence RNA nanoparticle, SEQ ID NO:120-122, 3′ biotin on a-strand, 2′F (nucleic acid, chain 1: 3' {Biotin}, sugars by position and backbone not given here; chain 2: chemistry not given here; chain 3: chemistry not given here; three-strand RNA nanoparticle, 2'-F modified) chain 1: GCGGCGAGCGGCGAGGAGCGUUGGGGCCGGAGGCCGG chain 2: CCGGCCUCCGGCCCCUUCGGGGCCAGCCGCC chain 3: GGCGGCAGGCCCCCAUAGCCCUCGCCGCUCGCCGC | – | 6.808 | – |
| R-19: extension fragment deformation+core short-sequence RNA nanoparticle, SEQ ID NO:132-134, 3′ biotin on a-strand, 2′F (nucleic acid, chain 1: 3' {Biotin}, sugars by position and backbone not given here; chain 2: chemistry not given here; chain 3: chemistry not given here; three-strand RNA nanoparticle, 2'-F modified) chain 1: GCGGCGAGCGGCGAGCAGCGUUCGGGCCGGAGGCCGG chain 2: CCGGCCUCCGGCCCGUUCGGCCCCAGCCGCC chain 3: GGCGGCAGGGGCCCAUAGCGCUCGCCGCUCGCCGC | – | 6.936 | – |
| R-18: extension fragment deformation+core short-sequence RNA nanoparticle, SEQ ID NO:129-131, 3′ biotin on a-strand, 2′F (nucleic acid, chain 1: 3' {Biotin}, sugars by position and backbone not given here; chain 2: chemistry not given here; chain 3: chemistry not given here; three-strand RNA nanoparticle, 2'-F modified) chain 1: GCGGCGAGCGGCGAGCAGCGUUCGGGCCGGAGGCCGG chain 2: CCGGCCUCCGGCCCGUUCGGCGCCAGCCGCC chain 3: GGCGGCAGGCGCCCAUAGCGCUCGCCGCUCGCCGC | – | 7.520 | – |
| R-17: extension fragment deformation+core short-sequence RNA nanoparticle, SEQ ID NO:126-128, 3′ biotin on a-strand, 2′F (nucleic acid, chain 1: 3' {Biotin}, sugars by position and backbone not given here; chain 2: chemistry not given here; chain 3: chemistry not given here; three-strand RNA nanoparticle, 2'-F modified) chain 1: GCGGCGAGCGGCGAGGAGCGUUGGGGCCGGAGGCCGG chain 2: CCGGCCUCCGGCCCCUUCGCCGCCAGCCGCC chain 3: GGCGGCAGGCGGCCAUAGCCCUCGCCGCUCGCCGC | – | 7.592 | – |
| R-16: extension fragment deformation+core short-sequence RNA nanoparticle, SEQ ID NO:123-125, 3′ biotin on a-strand, 2′F (nucleic acid, chain 1: 3' {Biotin}, sugars by position and backbone not given here; chain 2: chemistry not given here; chain 3: chemistry not given here; three-strand RNA nanoparticle, 2'-F modified) chain 1: GCGGCGAGCGGCGAGCAGCGUUCGGGCCGGAGGCCGG chain 2: CCGGCCUCCGGCCCGUUCGCCGCCAGCCGCC chain 3: GGCGGCAGGCGGCCAUAGCGCUCGCCGCUCGCCGC | – | 6.978 | – |
